± gives the standard error.

This note sets out measurements from the supplement of paper PMC9428881.

This data set can be described thus: background-corrected fluorescence of 3'-dye-labeled ssDNA relative to brightest sequence (3'-GCGCG) (fraction); higher = brighter dye fluorescence (less quenching). The method, boiled down: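 Each of 1024 permuted pentamers was synthesized as single-stranded DNA on glass slides by light-directed phosphoramidite chemistry, with a 3' Cy3 or Cy5 dye alongside. Arrays were scanned at 532 or 635 nm before and after overnight deprotection with ethylenediamine/ethanol. Values average 10 features per array across at least 3 syntheses. The fluorescence readout, with unlabeled-oligo background removed, is given relative to the brightest sequence.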

“TTTTTTGAGCAGCAGCAGCATTTTTTTTTTTTTTTCTTTT” registered a background-corrected fluorescence (dye: Cy3 (3' terminal)) of 0.494 ± 0.021 and a background-corrected fluorescence (dye: Cy5 (3' terminal)) of 0.357 ± 0.035.
Take “TTTTTTGAGCAGCAGCATCATTTTTTTTTTTTTTTCTTTG [GTTTC]”: the background-corrected fluorescence stood at 0.498 ± 0.024 (dye: Cy3 (3' terminal)) and 0.343 ± 0.027 (dye: Cy5 (3' terminal)).
The like results for “TTTTTTGAGCAGCAGCATGATTTTTTTTTTTTTTTCTTTC” were, in that order, 0.389 ± 0.014 and 0.297 ± 0.05.
For “TTTTTTGAGCAGCAGCATGCTTTTTTTTTTTTTTTCTTTA [ATTTC]” the same measures were 0.48 ± 0.016 and 0.4 ± 0.037.
For “TTTTTTGAGCAGCATCAGCATTTTTTTTTTTTTTTCTTGT [TGTTC]” the same measures were 0.604 ± 0.019 and 0.429 ± 0.024.
“TTTTTTGAGCAGCATCATCATTTTTTTTTTTTTTTCTTGG [GGTTC]”: the background-corrected fluorescence (dye: Cy3 (3' terminal)) is 0.631 ± 0.038 and the background-corrected fluorescence (dye: Cy5 (3' terminal)) amounted to 0.47 ± 0.05.
The like results for “TTTTTTGAGCAGCATCATGATTTTTTTTTTTTTTTCTTGC [CGTTC]” were, in that order, 0.481 ± 0.026 and 0.365 ± 0.022.
Take “TTTTTTGAGCAGCATCATGCTTTTTTTTTTTTTTTCTTGA [AGTTC]”: the background-corrected fluorescence reads like this: (dye: Cy3 (3' terminal)) 0.615 ± 0.027; (dye: Cy5 (3' terminal)) 0.53 ± 0.07.
As to “TTTTTTGAGCAGCATGAGCATTTTTTTTTTTTTTTCTTCT”, the background-corrected fluorescence is, setting by setting: (dye: Cy3 (3' terminal)) 0.441 ± 0.027; (dye: Cy5 (3' terminal)) 0.342 ± 0.027.
Turning to “TTTTTTGAGCAGCATGATCATTTTTTTTTTTTTTTCTTCG [GCTTC]”, the background-corrected fluorescence (dye: Cy3 (3' terminal)) is 0.477 ± 0.0068 and the background-corrected fluorescence (dye: Cy5 (3' terminal)) is 0.384 ± 0.019.
The like results for “TTTTTTGAGCAGCATGATGATTTTTTTTTTTTTTTCTTCC [CCTTC]” were, in that order, 0.345 ± 0.016 and 0.229 ± 0.015.
For “TTTTTTGAGCAGCATGATGCTTTTTTTTTTTTTTTCTTCA [ACTTC]” the same measures were 0.455 ± 0.027 and 0.382 ± 0.041.
The like results for “TTTTTTGAGCAGCATGCGCATTTTTTTTTTTTTTTCTTAT [TATTC]” were, in that order, 0.513 ± 0.029 and 0.369 ± 0.025.
Turning to “TTTTTTGAGCAGCATGCTCATTTTTTTTTTTTTTTCTTAG [GATTC]”, the background-corrected fluorescence (dye: Cy3 (3' terminal)) came out at 0.528 ± 0.014 and the background-corrected fluorescence (dye: Cy5 (3' terminal)) is 0.395 ± 0.039.
The like results for “TTTTTTGAGCAGCATGCTGATTTTTTTTTTTTTTTCTTAC [CATTC]” were, in that order, 0.404 ± 0.026 and 0.3 ± 0.017.
For “TTTTTTGAGCAGCATGCTGCTTTTTTTTTTTTTTTCTTAA [AATTC]” the same measures were 0.562 ± 0.019 and 0.427 ± 0.039.
For “TTTTTTGAGCATCAGCAGCATTTTTTTTTTTTTTTCTGTT [TTGTC]” the same measures were 0.541 ± 0.023 and 0.411 ± 0.033.
On to “TTTTTTGAGCATCAGCATCATTTTTTTTTTTTTTTCTGTG [GTGTC]”, for which the background-corrected fluorescence stood at 0.559 ± 0.039 (dye: Cy3 (3' terminal)) and 0.425 ± 0.021 (dye: Cy5 (3' terminal)).
Consider “TTTTTTGAGCATCAGCATGATTTTTTTTTTTTTTTCTGTC”, for which the background-corrected fluorescence came to 0.443 ± 0.03 (dye: Cy3 (3' terminal)) and 0.352 ± 0.018 (dye: Cy5 (3' terminal)).
For “TTTTTTGAGCATCAGCATGCTTTTTTTTTTTTTTTCTGTA [ATGTC]” the same measures were 0.571 ± 0.019 and 0.429 ± 0.072.
The like results for “TTTTTTGAGCATCATCAGCATTTTTTTTTTTTTTTCTGGT [TGGTC]” were, in that order, 0.653 ± 0.018 and 0.557 ± 0.035.
The like results for “TTTTTTGAGCATCATCATCATTTTTTTTTTTTTTTCTGGG [GGGTC]” were, in that order, 0.668 ± 0.018 and 0.563 ± 0.043.
“TTTTTTGAGCATCATCATGATTTTTTTTTTTTTTTCTGGC [CGGTC]” showed a background-corrected fluorescence (dye: Cy3 (3' terminal)) of 0.533 ± 0.0091 and a background-corrected fluorescence (dye: Cy5 (3' terminal)) of 0.439 ± 0.035.
For “TTTTTTGAGCATCATCATGCTTTTTTTTTTTTTTTCTGGA [AGGTC]” the same measures were 0.69 ± 0.023 and 0.605 ± 0.047.
The like results for “TTTTTTGAGCATCATGAGCATTTTTTTTTTTTTTTCTGCT [TCGTC]” were, in that order, 0.492 ± 0.021 and 0.39 ± 0.049.
Regarding “TTTTTTGAGCATCATGATCATTTTTTTTTTTTTTTCTGCG [GCGTC]”, the background-corrected fluorescence was 0.589 ± 0.024 (dye: Cy3 (3' terminal)) and 0.483 ± 0.051 (dye: Cy5 (3' terminal)).
The like results for “TTTTTTGAGCATCATGATGATTTTTTTTTTTTTTTCTGCC [CCGTC]” were, in that order, 0.402 ± 0.027 and 0.312 ± 0.018.
For “TTTTTTGAGCATCATGATGCTTTTTTTTTTTTTTTCTGCA [ACGTC]” the same measures were 0.557 ± 0.03 and 0.452 ± 0.046.
The like results for “TTTTTTGAGCATCATGCGCATTTTTTTTTTTTTTTCTGAT [TAGTC]” were, in that order, 0.59 ± 0.02 and 0.455 ± 0.036.
In the case of “TTTTTTGAGCATCATGCTCATTTTTTTTTTTTTTTCTGAG [GAGTC]”, the background-corrected fluorescence (dye: Cy3 (3' terminal)) was 0.621 ± 0.024 and the background-corrected fluorescence (dye: Cy5 (3' terminal)) was 0.479 ± 0.041.
The like results for “TTTTTTGAGCATCATGCTGATTTTTTTTTTTTTTTCTGAC [CAGTC]” were, in that order, 0.465 ± 0.024 and 0.354 ± 0.033.
The like results for “TTTTTTGAGCATCATGCTGCTTTTTTTTTTTTTTTCTGAA [AAGTC]” were, in that order, 0.575 ± 0.026 and 0.514 ± 0.029.
The like results for “TTTTTTGAGCATGAGCAGCATTTTTTTTTTTTTTTCTCTT” were, in that order, 0.49 ± 0.0076 and 0.334 ± 0.024.
With “TTTTTTGAGCATGAGCATCATTTTTTTTTTTTTTTCTCTG [GTCTC]”, the background-corrected fluorescence runs as follows: (dye: Cy3 (3' terminal)) 0.48 ± 0.018; (dye: Cy5 (3' terminal)) 0.352 ± 0.033.
The like results for “TTTTTTGAGCATGAGCATGATTTTTTTTTTTTTTTCTCTC” were, in that order, 0.357 ± 0.036 and 0.284 ± 0.019.
As to “TTTTTTGAGCATGAGCATGCTTTTTTTTTTTTTTTCTCTA [ATCTC]”, the background-corrected fluorescence stood at 0.483 ± 0.0051 (dye: Cy3 (3' terminal)) and 0.36 ± 0.023 (dye: Cy5 (3' terminal)).
For “TTTTTTGAGCATGATCAGCATTTTTTTTTTTTTTTCTCGT [TGCTC]” the same measures were 0.567 ± 0.015 and 0.416 ± 0.024.
For “TTTTTTGAGCATGATCATCATTTTTTTTTTTTTTTCTCGG [GGCTC]” the same measures were 0.641 ± 0.034 and 0.508 ± 0.037.
For “TTTTTTGAGCATGATCATGATTTTTTTTTTTTTTTCTCGC [CGCTC]” the same measures were 0.548 ± 0.032 and 0.412 ± 0.035.
In the case of “TTTTTTGAGCATGATCATGCTTTTTTTTTTTTTTTCTCGA [AGCTC]”, the background-corrected fluorescence is 0.599 ± 0.011 (dye: Cy3 (3' terminal)) and 0.49 ± 0.03 (dye: Cy5 (3' terminal)).
For “TTTTTTGAGCATGATGAGCATTTTTTTTTTTTTTTCTCCT [TCCTC]” the same measures were 0.41 ± 0.018 and 0.33 ± 0.032.
“TTTTTTGAGCATGATGATCATTTTTTTTTTTTTTTCTCCG [GCCTC]”: the background-corrected fluorescence was 0.531 ± 0.02 (dye: Cy3 (3' terminal)) and 0.426 ± 0.028 (dye: Cy5 (3' terminal)).
For “TTTTTTGAGCATGATGATGATTTTTTTTTTTTTTTCTCCC [CCCTC]” the same measures were 0.377 ± 0.029 and 0.269 ± 0.018.
On to “TTTTTTGAGCATGATGATGCTTTTTTTTTTTTTTTCTCCA [ACCTC]”, for which the background-corrected fluorescence is, setting by setting: (dye: Cy3 (3' terminal)) 0.441 ± 0.019; (dye: Cy5 (3' terminal)) 0.356 ± 0.055.
The like results for “TTTTTTGAGCATGATGCGCATTTTTTTTTTTTTTTCTCAT [TACTC]” were, in that order, 0.513 ± 0.018 and 0.378 ± 0.019.
The like results for “TTTTTTGAGCATGATGCTCATTTTTTTTTTTTTTTCTCAG [GACTC]” were, in that order, 0.517 ± 0.024 and 0.389 ± 0.03.
The like results for “TTTTTTGAGCATGATGCTGATTTTTTTTTTTTTTTCTCAC [CACTC]” were, in that order, 0.391 ± 0.046 and 0.314 ± 0.022.
Turning to “TTTTTTGAGCATGATGCTGCTTTTTTTTTTTTTTTCTCAA [AACTC]”, the background-corrected fluorescence by setting is: (dye: Cy3 (3' terminal)) 0.52 ± 0.042; (dye: Cy5 (3' terminal)) 0.395 ± 0.02.
The like results for “TTTTTTGAGCATGCGCAGCATTTTTTTTTTTTTTTCTATT [TTATC]” were, in that order, 0.527 ± 0.047 and 0.402 ± 0.056.
For “TTTTTTGAGCATGCGCATCATTTTTTTTTTTTTTTCTATG [GTATC]” the same measures were 0.564 ± 0.015 and 0.383 ± 0.029.
Take “TTTTTTGAGCATGCGCATGATTTTTTTTTTTTTTTCTATC”: the background-corrected fluorescence was found to be 0.373 ± 0.025 (dye: Cy3 (3' terminal)) and 0.309 ± 0.018 (dye: Cy5 (3' terminal)).
The like results for “TTTTTTGAGCATGCGCATGCTTTTTTTTTTTTTTTCTATA [ATATC]” were, in that order, 0.527 ± 0.018 and 0.411 ± 0.023.
For “TTTTTTGAGCATGCTCAGCATTTTTTTTTTTTTTTCTAGT [TGATC]” the same measures were 0.612 ± 0.019 and 0.451 ± 0.029.
With “TTTTTTGAGCATGCTCATCATTTTTTTTTTTTTTTCTAGG [GGATC]”, the background-corrected fluorescence is 0.647 ± 0.019 (dye: Cy3 (3' terminal)) and 0.507 ± 0.036 (dye: Cy5 (3' terminal)).
For “TTTTTTGAGCATGCTCATGATTTTTTTTTTTTTTTCTAGC [CGATC]” the same measures were 0.508 ± 0.033 and 0.407 ± 0.04.
For “TTTTTTGAGCATGCTCATGCTTTTTTTTTTTTTTTCTAGA [AGATC]” the same measures were 0.608 ± 0.035 and 0.529 ± 0.026.
The like results for “TTTTTTGAGCATGCTGAGCATTTTTTTTTTTTTTTCTACT [TCATC]” were, in that order, 0.454 ± 0.0046 and 0.33 ± 0.024.
Regarding “TTTTTTGAGCATGCTGATCATTTTTTTTTTTTTTTCTACG [GCATC]”, the background-corrected fluorescence amounted to 0.565 ± 0.027 (dye: Cy3 (3' terminal)) and 0.416 ± 0.022 (dye: Cy5 (3' terminal)).
